The record followed here is article doi:10.1101/2022.05.21.492920.

For this experiment, the target named is SARS-CoV-2 S (Acro Biosystems), unlabelled (SARS-CoV-2) (UniProt P0DTC2). Description: SPR; Biacore, CM5 chip; S covalently immobilised at pH 4.0 (about 8500 RU); ERα, ACE2 or NRP1 injected at 1.56 to 200 nM; global fit to a single site binding model. (In general: SPR reads the build-up and loss of mass on a sensor chip optically.)

As for “recombinant NRP1 (Acro Biosystems), analyte in SPR (from UniProt O14786 22-856) (natural protein)”, the Kd (as a rule, the concentration at which binding is half-saturated) stood at 89.4 nM.
On to “ERα-full length (InVitrogen), analyte in SPR (from UniProt P03372 1-595) (receptor)”, for which the Kd is 9.7 nM.
